Test results as given in US11692025 (UNIVERSITY COURT OF THE UNIVERSITY OF ABERDEEN, dated 2023).
One block for each binder: values may come before it.

Experiments:
rat serum albumin [1] = molecular target: T1, rat serum albumin (rat, UniProt P02770 25-608); test: BIAcore, mean ± SE
T1 construct: also called RSA

CSA = molecular target: T2, CSA (monkey, UniProt A2V9Z4 25-608, limits assumed); test: BIAcore, mean ± SE
T2 construct: also called monkey albumin

mouse serum albumin [2] = molecular target: T3, mouse serum albumin (mouse, UniProt P07724 25-608); test: BIAcore, mean ± SE
T3 construct: also called MSA
T3 sequence (P07724 25-608 limits assumed): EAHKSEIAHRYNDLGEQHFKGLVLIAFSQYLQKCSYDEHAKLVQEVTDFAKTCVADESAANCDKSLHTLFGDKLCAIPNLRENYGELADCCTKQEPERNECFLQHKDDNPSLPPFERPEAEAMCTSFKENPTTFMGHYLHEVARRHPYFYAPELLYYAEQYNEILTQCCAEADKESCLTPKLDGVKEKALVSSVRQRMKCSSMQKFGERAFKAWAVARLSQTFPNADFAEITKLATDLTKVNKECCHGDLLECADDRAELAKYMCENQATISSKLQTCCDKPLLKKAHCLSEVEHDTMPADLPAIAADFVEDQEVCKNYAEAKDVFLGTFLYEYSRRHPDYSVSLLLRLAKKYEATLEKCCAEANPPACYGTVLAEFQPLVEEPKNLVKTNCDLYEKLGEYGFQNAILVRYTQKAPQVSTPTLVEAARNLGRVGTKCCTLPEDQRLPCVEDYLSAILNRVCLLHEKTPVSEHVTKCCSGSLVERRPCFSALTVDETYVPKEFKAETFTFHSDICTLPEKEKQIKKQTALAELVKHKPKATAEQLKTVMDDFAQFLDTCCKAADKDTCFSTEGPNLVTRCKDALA

human serum albumin [3] = molecular target: T4, human serum albumin (human, UniProt P02768 25-609); test: BIAcore, mean ± SE
T4 construct: also called HSA; HAS

hen egg lysozyme [4] = molecular target: T5, hen egg lysozyme (hen, UniProt P00698 19-147); test: Biacore, monomeric VNAR
T5 construct: also called HEL
T5 sequence (P00698 19-147): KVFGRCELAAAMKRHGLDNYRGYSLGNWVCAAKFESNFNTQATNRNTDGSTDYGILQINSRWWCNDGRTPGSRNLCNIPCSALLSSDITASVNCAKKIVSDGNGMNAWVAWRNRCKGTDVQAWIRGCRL

rat serum albumin [5] = molecular target: T1, rat serum albumin; test: BIAcore, pH 7.4, monomeric 6xHis-tagged VNAR
mouse serum albumin [6] = molecular target: T3, mouse serum albumin; test: BIAcore, pH 7.4, monomeric 6xHis-tagged VNAR
human serum albumin [7] = molecular target: T4, human serum albumin; test: BIAcore, pH 7.4, monomeric 6xHis-tagged VNAR
hen egg lysozyme [8] = molecular target: T5, hen egg lysozyme; test: BIAcore
rat serum albumin [9] = molecular target: T1, rat serum albumin; test: BIAcore, pH 6.0, monomeric 6xHis-tagged VNAR
mouse serum albumin [10] = molecular target: T3, mouse serum albumin; test: BIAcore, pH 6.0, monomeric 6xHis-tagged VNAR
human serum albumin [11] = molecular target: T4, human serum albumin; test: BIAcore, pH 6.0, monomeric 6xHis-tagged VNAR
mouse serum albumin [12] = molecular target: T3, mouse serum albumin; test: BIAcore
human serum albumin [13] = molecular target: T4, human serum albumin; test: BIAcore

T1 sequence (P02770 25-608 limits assumed): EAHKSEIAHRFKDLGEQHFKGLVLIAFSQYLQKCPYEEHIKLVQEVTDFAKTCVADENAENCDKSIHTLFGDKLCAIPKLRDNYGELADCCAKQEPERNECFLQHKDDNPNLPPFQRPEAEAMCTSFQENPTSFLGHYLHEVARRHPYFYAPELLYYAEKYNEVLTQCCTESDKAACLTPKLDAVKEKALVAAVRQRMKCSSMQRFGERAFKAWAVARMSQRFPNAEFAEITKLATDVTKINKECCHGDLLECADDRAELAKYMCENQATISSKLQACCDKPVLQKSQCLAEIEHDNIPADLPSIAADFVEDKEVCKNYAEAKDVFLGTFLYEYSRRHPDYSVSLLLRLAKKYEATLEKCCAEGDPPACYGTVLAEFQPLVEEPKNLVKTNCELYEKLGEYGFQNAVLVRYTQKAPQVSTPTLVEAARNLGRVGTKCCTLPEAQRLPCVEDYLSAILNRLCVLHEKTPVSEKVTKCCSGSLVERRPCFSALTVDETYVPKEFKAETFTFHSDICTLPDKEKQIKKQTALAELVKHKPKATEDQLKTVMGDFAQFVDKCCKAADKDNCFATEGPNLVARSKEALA
T2 sequence (A2V9Z4 25-608 limits assumed): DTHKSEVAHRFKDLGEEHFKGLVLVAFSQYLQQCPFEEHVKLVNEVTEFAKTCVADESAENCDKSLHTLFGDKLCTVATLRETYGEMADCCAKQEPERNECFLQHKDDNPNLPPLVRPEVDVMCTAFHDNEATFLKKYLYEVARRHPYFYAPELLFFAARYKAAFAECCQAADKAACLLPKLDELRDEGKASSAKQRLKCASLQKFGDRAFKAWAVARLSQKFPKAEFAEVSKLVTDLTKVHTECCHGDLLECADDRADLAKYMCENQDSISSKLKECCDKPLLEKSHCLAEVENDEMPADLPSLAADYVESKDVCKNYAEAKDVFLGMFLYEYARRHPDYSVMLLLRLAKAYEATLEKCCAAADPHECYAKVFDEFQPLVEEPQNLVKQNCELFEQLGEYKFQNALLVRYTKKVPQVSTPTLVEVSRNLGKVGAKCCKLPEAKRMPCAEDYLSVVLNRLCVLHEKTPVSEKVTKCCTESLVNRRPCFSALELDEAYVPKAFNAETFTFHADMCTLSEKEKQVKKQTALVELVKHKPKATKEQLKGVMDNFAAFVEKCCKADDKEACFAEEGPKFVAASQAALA

Kd (rat serum albumin [1]): 5.95 nM
koff (rat serum albumin [1]): 0.00344 s⁻¹
kon (rat serum albumin [1]): 623000 M⁻¹ s⁻¹
Kd (CSA): 0.91 nM
koff (CSA): 0.000682 s⁻¹
kon (CSA): 820000 M⁻¹ s⁻¹
Kd (mouse serum albumin [2]): 2.49 nM
koff (mouse serum albumin [2]): 0.00214 s⁻¹
kon (mouse serum albumin [2]): 862000 M⁻¹ s⁻¹
Kd (human serum albumin [3]): 0.721 nM
koff (human serum albumin [3]): 0.000641 s⁻¹
kon (human serum albumin [3]): 953000 M⁻¹ s⁻¹
B1: 2V-E06 (VNAR, part only; not given: naive VNAR 2V and linker, not shown: small tags and cut ends)
chain, part: TRVDQTPRTATRETGESLTINCVLTDTSYPLYSTYWYRKNPGSSNKEQISISGRYVESVNKGTKSFSLRIKDLTVADSATYICRAMGTNIWTGDGAGTVLTVNAAAHHHHHH

binding result (mouse serum albumin [12]): no binding
binding result (human serum albumin [13]): no binding
B4: 5A7-AAA-6xHis (VNAR)
VNAR: ARVDQTPRSVTKETGESLTINCVLRDASYALGSTCWYRKKSGEGNEESISKGGRYVETVNSGSKSFSLRINDLTVEDGGTYRCGLGVAGGYCDYALCSSRYAECGDGTAVTVNA
notes: Type I shark VNAR against hen egg lysozyme, monomeric; also called parental 5A7; anti-HEL 5A7

The remaining lines, values behind:

B2: 5A7IVabc-AAA-6xHis (VNAR)
VNAR: ARVDQSPSSLSASVGDRVTITCVLRDASYALGSTCWYQQKPGKAPKSISKGGRYSESVNSGSKSFTLTISSLQPEDFATYYCGLGVAGGYCDYALCSSRYAECGQGTKVEIKA
notes: Humanized 5A7 VNAR, monomeric; also called humanized 5A7-IVabc
Kd (hen egg lysozyme [4]): 14.8 nM
koff (hen egg lysozyme [4]): 0.173 s⁻¹
kon (hen egg lysozyme [4]): 1.17e+07 M⁻¹ s⁻¹

B3: E06-AAA-6xHis (VNAR)
VNAR: TRVDQTPRTATRETGESLTINCVLTDTSYPLYSTYWYRKNPGSSNKEQISISGRYVESVNKGTKSFSLRIKDLTVADSATYICRAMGTNIWTGDGAGTVLTVNA
notes: Shark VNAR single domain against serum albumin; also called wild-type E06; monomeric 6xHis-tagged E06
Kd (rat serum albumin [5]): 1.45 nM
koff (rat serum albumin [5]): 0.0032 s⁻¹
kon (rat serum albumin [5]): 2.21e+06 M⁻¹ s⁻¹
Kd (mouse serum albumin [6]): 0.83 nM
koff (mouse serum albumin [6]): 0.0018 s⁻¹
kon (mouse serum albumin [6]): 2.18e+06 M⁻¹ s⁻¹
Kd (human serum albumin [7]): 0.19 nM
koff (human serum albumin [7]): 0.000655 s⁻¹
kon (human serum albumin [7]): 3.48e+06 M⁻¹ s⁻¹
binding result (hen egg lysozyme [8]): no binding
Kd (rat serum albumin [9]): 0.34 nM
koff (rat serum albumin [9]): 0.00433 s⁻¹
kon (rat serum albumin [9]): 1.26e+07 M⁻¹ s⁻¹
Kd (mouse serum albumin [10]): 0.33 nM
koff (mouse serum albumin [10]): 0.00323 s⁻¹
kon (mouse serum albumin [10]): 9.85e+06 M⁻¹ s⁻¹
Kd (human serum albumin [11]): 0.14 nM
koff (human serum albumin [11]): 0.00159 s⁻¹
kon (human serum albumin [11]): 1.12e+07 M⁻¹ s⁻¹
Kd (rat serum albumin [1]): 1.34 nM
koff (rat serum albumin [1]): 0.00301 s⁻¹
kon (rat serum albumin [1]): 2.24e+06 M⁻¹ s⁻¹
Kd (CSA): 0.219 nM
koff (CSA): 0.000584 s⁻¹
kon (CSA): 2.68e+06 M⁻¹ s⁻¹
Kd (mouse serum albumin [2]): 0.74 nM
koff (mouse serum albumin [2]): 0.00171 s⁻¹
kon (mouse serum albumin [2]): 2.32e+06 M⁻¹ s⁻¹
Kd (human serum albumin [3]): 0.189 nM
koff (human serum albumin [3]): 0.000583 s⁻¹
kon (human serum albumin [3]): 3.09e+06 M⁻¹ s⁻¹
